The record followed here is publication PMC10232262.

The target of the assay is TRPA1 tagged with V5 and 6x histidine in the C terminus (UniProt Q8BLA8). The assay is described as follows: pull-down; nickel bead (Ni-NTA) pull-down of TRPA1-V5-His from HEK293 cells; IQGAP1 detected with anti-IQGAP1; cells untreated or treated with AITC (400 uM), AITC with HC-030031 (10 uM), AITC in Ca2+-free solution, or forskolin.
Chain of UniProt Q8BLA8 (Q8BLA8 whole entry): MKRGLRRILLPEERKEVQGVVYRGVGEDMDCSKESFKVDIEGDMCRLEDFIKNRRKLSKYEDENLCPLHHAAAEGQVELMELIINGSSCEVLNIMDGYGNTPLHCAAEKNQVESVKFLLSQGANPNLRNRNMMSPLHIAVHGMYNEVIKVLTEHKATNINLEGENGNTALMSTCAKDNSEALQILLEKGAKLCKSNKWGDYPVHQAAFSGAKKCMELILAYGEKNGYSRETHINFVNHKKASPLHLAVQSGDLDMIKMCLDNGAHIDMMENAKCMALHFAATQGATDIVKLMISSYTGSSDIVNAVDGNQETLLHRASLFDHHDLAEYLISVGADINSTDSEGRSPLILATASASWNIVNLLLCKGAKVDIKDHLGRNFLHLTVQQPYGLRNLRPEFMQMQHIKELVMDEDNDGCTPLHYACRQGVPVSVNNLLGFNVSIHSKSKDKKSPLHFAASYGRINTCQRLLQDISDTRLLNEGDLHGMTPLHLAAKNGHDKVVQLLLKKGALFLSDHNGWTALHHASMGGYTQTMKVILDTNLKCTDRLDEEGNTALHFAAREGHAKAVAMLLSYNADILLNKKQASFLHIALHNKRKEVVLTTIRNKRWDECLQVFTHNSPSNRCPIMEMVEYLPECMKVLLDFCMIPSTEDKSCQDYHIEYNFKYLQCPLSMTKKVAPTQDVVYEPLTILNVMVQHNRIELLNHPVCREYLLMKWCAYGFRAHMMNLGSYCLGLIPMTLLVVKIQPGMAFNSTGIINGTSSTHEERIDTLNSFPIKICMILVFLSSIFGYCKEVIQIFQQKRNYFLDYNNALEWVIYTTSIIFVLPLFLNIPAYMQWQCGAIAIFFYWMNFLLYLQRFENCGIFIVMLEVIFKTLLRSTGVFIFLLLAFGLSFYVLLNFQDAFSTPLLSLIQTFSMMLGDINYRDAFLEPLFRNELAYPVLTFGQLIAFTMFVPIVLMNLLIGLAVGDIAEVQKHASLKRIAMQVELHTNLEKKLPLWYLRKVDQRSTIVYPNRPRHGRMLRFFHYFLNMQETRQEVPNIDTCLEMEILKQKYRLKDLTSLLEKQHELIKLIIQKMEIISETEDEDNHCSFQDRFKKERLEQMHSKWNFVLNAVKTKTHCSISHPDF

In turn, “Cdc42 binding region (M1054-K1077) deleted IQGAP1 (from UniProt P46940 1-1657) (natural protein)” displayed a relative band density (basal, against wild-type IQGAP1 basal = 1.0) (relative to the first band) of 0.53.

The substance “IQ motif (L700-Q905) deleted IQGAP1 (from UniProt P46940 1-1657) (natural protein)” yielded a relative band density (basal, against wild-type IQGAP1 basal = 1.0) (relative to the first band) of 1.61.
